Test results published in article PMC12493188.

Experiments:
[1] = target: reaction centre-light harvesting 1 (RC-LH1) core complex, monomer, from Rba. sphaeroides strain DX13 (Rhodobacter sphaeroides 2.4.1) (UniProt P0C0Y8)
[2] = target: reaction centre-light harvesting 1 (RC-LH1) core complex, monomer, from Rba. sphaeroides strain DX13 (Rhodobacter sphaeroides 2.4.1) (UniProt P0C0Y8); remark: listed apart in the source

Substance: cytochrome c 2 (cyt c 2) of Rba. sphaeroides (from UniProt P0C0X8 1-124) (natural protein)
- K M of redox carrier oxidation by RC-LH1, steady-state turnover (0.125 µM RC-LH1, 50 µM UQ-2, 50 mM Tris-HCl pH 7.5, 100 mM NaCl, 0.03% β-DDM, 25°C) [1]: 6.8 µM
- V max of redox carrier oxidation by RC-LH1, steady-state turnover (0.125 µM RC-LH1, 50 µM UQ-2, 50 mM Tris-HCl pH 7.5, 100 mM NaCl, 0.03% β-DDM, 25°C) [1]: 293 e^−/RC/s
- cyt c 2 oxidation rate by RC-LH1 against NaCl (series up to 500 mM; optimum 100 mM in Table 1): activity left at 500 mM NaCl, percent of the maximum (% of maximum activity) [2]: 40

Substance: cytochrome c 6 (cyt c 6) of Synechocystis sp. PCC 6803 (from UniProt P46445 36-120) (natural protein)
- K M of redox carrier oxidation by RC-LH1, steady-state turnover (0.125 µM RC-LH1, 50 µM UQ-2, 50 mM Tris-HCl pH 7.5, 100 mM NaCl, 0.03% β-DDM, 25°C) [1]: 66.3 µM
- V max of redox carrier oxidation by RC-LH1, steady-state turnover (0.125 µM RC-LH1, 50 µM UQ-2, 50 mM Tris-HCl pH 7.5, 100 mM NaCl, 0.03% β-DDM, 25°C) [1]: 37.8 e^−/RC/s
- cyt c 6 oxidation rate by RC-LH1 against NaCl (0-800 mM): optimum [NaCl] [1]: 700 mM

Substance: cytochrome c (cyt c) from horse heart mitochondria (from UniProt P00004 1-105) (natural protein)
- cyt c oxidation rate by RC-LH1 against NaCl (series up to 500 mM; observed optimum 50 mM): activity lost at 500 mM NaCl (% of activity lost) [2]: 90

Substance: isocytochrome c 2 (iso c 2) of Rba. sphaeroides (natural protein)
- K M of redox carrier oxidation by RC-LH1, steady-state turnover (0.125 µM RC-LH1, 50 µM UQ-2, 50 mM Tris-HCl pH 7.5, 100 mM NaCl, 0.03% β-DDM, 25°C) [1]: 5.88 µM
- V max of redox carrier oxidation by RC-LH1, steady-state turnover (0.125 µM RC-LH1, 50 µM UQ-2, 50 mM Tris-HCl pH 7.5, 100 mM NaCl, 0.03% β-DDM, 25°C) [1]: 230 e^−/RC/s
- iso c 2 oxidation rate by RC-LH1 against NaCl (series up to 500 mM; optimum 50 mM in Table 1): activity left at 500 mM NaCl, percent of the maximum (% of maximum activity) [2]: 20

Substance: plastocyanin (Pc) of Synechocystis sp. PCC 6803, C-terminally StrepII-tagged (from UniProt P21697 29-126) (natural protein)
- K M of redox carrier oxidation by RC-LH1, steady-state turnover (0.125 µM RC-LH1, 50 µM UQ-2, 50 mM Tris-HCl pH 7.5, 100 mM NaCl, 0.03% β-DDM, 25°C) [1]: 209 µM
- Pc oxidation rate by RC-LH1 against NaCl (0-800 mM): optimum [NaCl] [1]: 700 mM
- V max of redox carrier oxidation by RC-LH1, steady-state turnover (0.125 µM RC-LH1, 50 µM UQ-2, 50 mM Tris-HCl pH 7.5, 100 mM NaCl, 0.03% β-DDM, 25°C) [1]: 7.92 e^−/RC/s
